According to US20240218057A1:

Assays:
[1] = biological target: SARS-COV-2 RBD (SARS-COV-2) (UniProt P0DTC2); assay: ELISA, RBD coated
[2] = biological target: SARS-CoV-2 receptor-binding domain (WT RBD; S protein residues 319-539) (SARS-CoV-2) (UniProt P0DTC2); assay: BLI (Octet Red), IgG on protein A biosensor, WT RBD in solution, 1:1 fit

Substance: C144 (antibody)
- EC50 [1]: 1.83 ng/mL
- Kd [2]: 714 nM
